Laboratory results taken from publication PMC12272874.

Molecular target: N-terminal FMN-binding domain of human methionine synthase reductase (ΔCMTRR, residues 1 to 231) (UniProt Q9UBK8)
Experiment: stopped-flow absorption spectroscopy; MTR•cob(II)alamin (40 μM) rapidly mixed with ΔCMTRRhq (70 μM) in Buffer D (100 mM potassium phosphate, pH 7.4), anaerobic, 24 °C; increase in absorbance at 464 nm (loss of His-785 coordination) over 60 s, double exponential fit
Details: other: stopped-flow absorption spectroscopy

N-terminal FMN-binding domain of human methionine synthase reductase (ΔCMTRR, residues 1 to 231), sequence (Q9UBK8 1-231, stated change not applied): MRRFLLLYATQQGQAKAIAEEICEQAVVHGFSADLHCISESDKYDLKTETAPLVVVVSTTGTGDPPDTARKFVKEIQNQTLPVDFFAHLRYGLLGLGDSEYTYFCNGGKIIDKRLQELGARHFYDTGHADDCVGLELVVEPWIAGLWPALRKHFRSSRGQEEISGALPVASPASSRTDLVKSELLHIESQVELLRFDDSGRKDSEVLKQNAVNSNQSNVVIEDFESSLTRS
Human methionine synthase (MTR), wild-type, full-length recombinant, sequence (chain, as listed by the source): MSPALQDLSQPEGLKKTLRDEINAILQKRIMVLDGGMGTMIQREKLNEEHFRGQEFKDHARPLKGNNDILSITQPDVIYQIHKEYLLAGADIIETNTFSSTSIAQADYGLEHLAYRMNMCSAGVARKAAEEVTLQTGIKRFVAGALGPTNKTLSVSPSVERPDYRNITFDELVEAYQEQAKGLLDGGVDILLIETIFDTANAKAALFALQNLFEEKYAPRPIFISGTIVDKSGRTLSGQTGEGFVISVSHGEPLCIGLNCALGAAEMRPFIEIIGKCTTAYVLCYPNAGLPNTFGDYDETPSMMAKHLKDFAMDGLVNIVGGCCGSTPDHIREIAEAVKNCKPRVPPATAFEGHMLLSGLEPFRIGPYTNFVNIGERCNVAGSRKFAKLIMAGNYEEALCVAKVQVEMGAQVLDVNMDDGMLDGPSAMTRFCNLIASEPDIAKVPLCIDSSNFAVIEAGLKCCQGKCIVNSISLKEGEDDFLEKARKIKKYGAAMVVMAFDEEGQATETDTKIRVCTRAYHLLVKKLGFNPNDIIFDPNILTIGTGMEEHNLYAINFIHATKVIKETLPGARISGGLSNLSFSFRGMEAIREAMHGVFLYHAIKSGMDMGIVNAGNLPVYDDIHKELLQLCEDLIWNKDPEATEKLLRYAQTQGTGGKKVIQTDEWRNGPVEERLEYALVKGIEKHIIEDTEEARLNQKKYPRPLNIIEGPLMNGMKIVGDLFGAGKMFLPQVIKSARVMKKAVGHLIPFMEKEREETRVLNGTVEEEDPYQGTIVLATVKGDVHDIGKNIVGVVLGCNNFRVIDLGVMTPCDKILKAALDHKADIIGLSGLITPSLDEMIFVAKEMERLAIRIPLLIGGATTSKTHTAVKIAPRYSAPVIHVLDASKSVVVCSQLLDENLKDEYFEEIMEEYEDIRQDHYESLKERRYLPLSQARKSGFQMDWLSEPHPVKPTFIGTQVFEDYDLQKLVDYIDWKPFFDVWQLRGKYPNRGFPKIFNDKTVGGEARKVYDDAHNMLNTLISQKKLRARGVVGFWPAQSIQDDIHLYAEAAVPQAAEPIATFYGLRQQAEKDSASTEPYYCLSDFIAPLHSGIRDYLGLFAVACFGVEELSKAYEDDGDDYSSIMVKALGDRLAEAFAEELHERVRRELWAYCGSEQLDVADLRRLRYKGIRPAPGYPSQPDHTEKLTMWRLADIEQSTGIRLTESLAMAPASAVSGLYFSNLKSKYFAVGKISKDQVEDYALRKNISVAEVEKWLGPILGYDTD
P1173L variant of human methionine synthase (MTR), full-length recombinant, sequence (chain, as listed by the source P1173L): as the sequence (chain, as listed by the source) above, with P1173L counted along it

Human methionine synthase (MTR), wild-type, full-length recombinant
observed rate constant for complex formation (kobs): the observed rate constant for complex formation was 0.1 ± 0.01 s^−1

P1173L variant of human methionine synthase (MTR), full-length recombinant
observed rate constant for complex formation (kobs): the observed rate constant for complex formation was 0.1 ± 0.01 s^−1
